Source: patent US20020077289A1, “Angiostatin and endostatin binding proteins and methods of use” (priority 2000, published 2002)

Assays:
[1] = biological target: T1, rhTM3 (human tropomyosin isoform 3) (Homo sapiens, UniProt P09493); assay: Surface plasmon resonance (BIAcore) binding to immobilized rhTM3; details: steady state model; soluble rhEndostatin over immobilized rhTM3 (3200 RU); 25° C; read-out: dissociation constant (KD) for the rhEndostatin/rhTM3 interaction
T1 construct: made in house; host or cells: E. coli BL21 (DE3), pET-21a(+)
T1 sequence (P09493 1-284 isoform P09493-3): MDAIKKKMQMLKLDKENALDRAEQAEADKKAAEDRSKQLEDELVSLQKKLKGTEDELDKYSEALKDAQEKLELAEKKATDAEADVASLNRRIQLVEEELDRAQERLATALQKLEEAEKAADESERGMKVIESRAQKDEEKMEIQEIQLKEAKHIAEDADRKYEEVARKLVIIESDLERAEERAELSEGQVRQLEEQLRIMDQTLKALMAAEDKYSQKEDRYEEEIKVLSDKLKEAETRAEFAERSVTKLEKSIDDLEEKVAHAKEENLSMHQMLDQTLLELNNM
Procedure: (A), 0, 10, 20, 40, 80 and 160 micromolar (μM) of rhEndostatin were injected at 5 microliters per minute (μl/minute) for 960 seconds through a biosensor flow cell that had been activated and blocked as a control for bulk refractive index and subsequently through a flow cell to which 3200 response units (RU) of rhTM3 had been immobilized. The binding kinetics were recorded and the differences between the two curves plotted for each rhEndostatin concentration. (B), 0, 11.5, 23 and 46 micromolar (μM) of rhAngiostatin were injected at 5 microliters per minute (μl/minute) for 900 seconds over a flow cell containing 3200 RU of rhTM3 as above. Samples were run in duplicate, the data corrected for bulk shift and the average of the 2 curves plotted. (C), Injection of 5 micromolar (μM) of rhEndostatin at 5 microliters per minute (μl/minute) for 240 seconds in the presence of 0, 6, 15, 30 and 45 micromolar (μM) of soluble rhTM3 over a flow cell containing 2000 RU of rhTM3. Samples were run in duplicate, the reference cell values subtracted and the average of each of the 2 curves plotted. The spikes in RU seen at the beginning and end of each injection are due to lag in flow caused by the rhTM3 and reference cells being non-adjacent.
Interactions between purified soluble rhEndostatin and rhTM3 were evaluated by surface plasmon resonance using the BIAcore 3000 (BiaCore, Piscataway, N.J.). The purified rhTM3 was immobilized on the flow cell of a CM-5 BIAcore biosensor chip. The running buffer was 0.01 M HEPES, pH 7.4, 0.15M NaCl and 0.005% polysorbate 20 (v/v). The competition experiments involving soluble rhTM3 were performed using PBS pH 7.4 as running buffer. All measurements were performed at 25° C. To correct for differences in bulk refraction all protein preparations were passed over an activated and blocked flow cell to which no protein had been coupled. Effects due to bulk shift were subtracted from experimental data.
Surface plasmon resonance performed using the BIAcore 3000 (BiaCore, Piscataway, N.J.) was used to assess the kinetics of rhEndostatin/rhTM3 binding. […]

B16-BL6 melanoma cells [2] = assay: B16-BL6 experimental metastasis assay; format: in vivo, C57BL/6J mice
Procedure: C57BL/6J mice were injected via the tail vein with 5×10^4 B16-BL6 melanoma cells on day 0. On day 3, groups of five mice received daily subcutaneous doses of either buffer control, 1.5 nmol (1.5 mg/kg/day) of rhEndostatin in combination with 0, 15, 75 or 375 nmol of control or E37 peptide, or control or E37 peptide alone for eleven days. All mice were sacrificed on day 14, and the number of pulmonary surface metastases in each animal counted. Error bars indicate standard deviation of the mean.
C57BL/6J mice (n=8) were injected intravenously (i.v.) with 5×10^4 B16-BL6 cells/mouse. Three days later treatment commenced. 100 μl of citrate-phosphate buffer (66 mM Sodium Phosphate, 17 mM Citric acid, 59 mM NaCl pH 6.2) containing 1.5 nmol of rhEndostatin and 100 μl of PBS containing either 0, 15, 75 or 375 nmol of control or E37 peptide were mixed and injected subcutaneously (s.c.) daily for 11 days. All mice were then sacrificed, their lungs removed and the number of surface metastases counted. Results were analyzed for statistical significance using the 2-tailed Student's t-test.
The following experiment was conducted to determine the interaction of E37 peptide and Endostatin protein. Briefly, the B16BL6 experimental metastasis assay, as known to those of skill in the art and further described in International Patent Application number PCT/US99/11418, was performed as follows. 5×10^4 B16-BL6 cells in 200 μl of PBS were injected into C57BL/6J mice via the tail vein. Three days post injection treatment was started. The injection received by eight groups of mice were: 1) citrate phosphate/PBS buffer, 2) ^30 μg Endostatin protein (in 100 μl PBS), 3) 30 μg Endostatin protein (in 200 μl PBS), 4) 30 μg Endostatin protein plus 50 times molar excess of control peptide (in 200 μl PBS), 5) 30 μg Endostatin protein plus 250 times molar excess of control peptide (in 200 μl PBS), 6) 30 μg Endostatin protein plus 10 times molar excess of E37 peptide (in 200 μl PBS), 7) 30 μg Endostatin protein plus 50 times molar excess of E37 peptide (in 200 μl PBS), and 8) 30 μg Endostatin protein plus 250 times molar excess of E37 peptide (in 200 μl PBS). Doses were administered daily for eleven days posterior to the thoracic cavity subcutaneously. All mice were sacrificed, the lungs removed and the number of surface metastases in each animal were counted under a stereo microscope.

G-actin = assay: Actin polymerization light scatter assay; format: biochemical; details: G-actin/Endostatin nucleation complexes
From the text: As a result of the inventors findings, also included herein are_antiangiogenic actin-binding molecules. Though not wishing to be bound by the following theory, it is believed that since actin polymerization is affected by Endostatin it could possibly mean that Endostatin is binding to the actin component of the microfilaments, in addition to or in association with tropomyosin. […] Accordingly, molecules such as Endostatin that have an effect on actin polymerization will have an effect on microfilaments resulting in anti-angiogenic activity through modification of cell motility, and induction of cell apoptosis. Preferred embodiments of the present invention include compositions comprising proteins and chemicals that bind tropomyosin isoforms, such as hTM3. In certain embodiments, such compositions may be characterized as antiangiogenic actin-binding molecules.

B16-BL6 melanoma cells [3] = assay: B16-BL6 experimental metastasis assay; format: in vivo, C57BL/6J mice; details: dose of 1.3 nmol rhEndostatin
intratumoral blood flow = details: systemic rhEndostatin therapy; cited from earlier work
mammary tumor = details: i.v. technetium (99mTc) labeled rhEndostatin, 100 μCi/rat; personal communication; cited from earlier work

Kd [1]: ~100 µM
B1: rhEndostatin: recombinant human Endostatin, antiangiogenic fragment of a C-terminal non-collagenous region of a collagen protein, produced in P. pastoris (protein)
chain: HSHRDFQPVLHLVALNSPLSGGMRGIRGADFQCFQQARAVGLAGTFRAFLSSRLQDLYSIVRRADRAAVPIVNLKDELLFPSWEALFSGSEGPLKPGARIFSFDGKDVLRHPTWPQKSVWHGSDPNGRRLTESYCETWRTEAPSATGQASSLLGGRLLGQSAASCHHAYIVLCIENSFMTASK
inhibition of lung metastasis (B16-BL6 melanoma cells [2]; 1.5 nmol rhEndostatin co-administered with 250-fold molar excess of E37 peptide): 11%
inhibition of the formation of lung metastasis (B16-BL6 melanoma cells [2]; 30 μg Endostatin protein alone, daily s.c. for eleven days): approximately 79%
inhibition of the formation of lung metastasis (B16-BL6 melanoma cells [2]; 30 μg Endostatin protein plus 10 fold molar excess of E37 peptide): approximately 76%
inhibition of the formation of lung metastasis (B16-BL6 melanoma cells [2]; 30 μg Endostatin protein plus 50 fold molar excess of E37 peptide): approximately 61%
inhibition of the formation of lung metastasis (B16-BL6 melanoma cells [2]; 30 μg Endostatin protein plus 50 fold molar excess of negative control peptide): approximately 79%
inhibition of the formation of lung metastasis (B16-BL6 melanoma cells [2]; 30 μg Endostatin protein plus 250 fold molar excess of E37 peptide): approximately 21%
inhibition of the formation of lung metastasis (B16-BL6 melanoma cells [2]; 30 μg Endostatin protein plus 250 fold molar excess of negative control peptide): approximately 73%
inhibition of growth of experimental B16-BL6 lung metastases compared to buffer treated control mice (B16-BL6 melanoma cells [2]; daily 1.5 nmol rhEndostatin (1.5 mg/kg/day)): greater than 70%
effect on actin polymerization (G-actin): shorten the lag phase and facilitate actin polymerization
inhibition of lung metastases inferred from dose titration of rhEndostatin (Sim et al) (B16-BL6 melanoma cells [3]): 77%
reduction of intratumoral blood flow (intratumoral blood flow): 50%
time after injection at which the tumor could be visualized (mammary tumor): 0.5 to 4 h
